Assay results taken from article PMC9482650, “Quantitative fragmentomics allow affinity mapping of interactomes” (Nature Communications, 2022).

What was measured:
Assay in all cases: holdup assay
Design in all cases: key: below the threshold = too weak to quantify, mostly under pKd 3.1 to 4
Conditions in all cases: plain residues with an end cap or a label only (N-terminal biotin on a linker: ado-ado)
CARD11, Q9BXL7 = biological target: T1, CARD11, Q9BXL7
T1 sequence (Q9BXL7 662-765, limits assumed, looked up): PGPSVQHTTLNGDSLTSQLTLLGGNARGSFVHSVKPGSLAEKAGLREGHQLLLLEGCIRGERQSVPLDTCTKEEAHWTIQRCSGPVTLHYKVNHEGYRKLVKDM

DFNB31_1, Q9P202 = biological target: T2, DFNB31_1, Q9P202
T2 sequence (Q9P202 135-233, limits assumed, looked up): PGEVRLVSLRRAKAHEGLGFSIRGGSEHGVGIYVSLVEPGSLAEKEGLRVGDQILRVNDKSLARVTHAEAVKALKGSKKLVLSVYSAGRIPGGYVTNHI

DFNB31_2, Q9P202 = biological target: T3, DFNB31_2, Q9P202
T3 sequence (Q9P202 274-371, limits assumed, looked up): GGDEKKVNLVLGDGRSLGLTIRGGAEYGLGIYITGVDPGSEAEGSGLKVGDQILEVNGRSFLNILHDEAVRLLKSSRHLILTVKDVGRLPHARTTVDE

DLG4_1, P78352 = biological target: DLG4_1, P78352
Chain of DLG4_1, P78352 (P78352 62-152): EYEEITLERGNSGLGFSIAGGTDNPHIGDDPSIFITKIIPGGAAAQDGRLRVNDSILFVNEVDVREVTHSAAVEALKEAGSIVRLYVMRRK

GIPC2, Q8TF65 = biological target: GIPC2, Q8TF65
Chain of GIPC2, Q8TF65 (Q8TF65 112-203): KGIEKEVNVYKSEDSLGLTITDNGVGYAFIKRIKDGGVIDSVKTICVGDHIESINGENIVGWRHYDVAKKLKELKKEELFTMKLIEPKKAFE

GRASP, Q7Z6J2 = biological target: GRASP, Q7Z6J2
Chain of GRASP, Q7Z6J2 (Q7Z6J2 96-193): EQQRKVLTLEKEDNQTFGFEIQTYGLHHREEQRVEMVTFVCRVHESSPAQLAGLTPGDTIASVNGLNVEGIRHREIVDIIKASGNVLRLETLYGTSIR

GRID2IP_2, A4D2P6 = biological target: GRID2IP_2, A4D2P6
Chain of GRID2IP_2, A4D2P6 (A4D2P6 272-370): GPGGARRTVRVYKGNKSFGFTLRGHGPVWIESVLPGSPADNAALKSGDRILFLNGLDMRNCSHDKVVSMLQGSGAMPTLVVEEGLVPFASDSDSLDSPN

GRIP1_4, Q9Y3R0 = biological target: T4, GRIP1_4, Q9Y3R0
T4 sequence (Q9Y3R0 467-571, limits assumed, looked up): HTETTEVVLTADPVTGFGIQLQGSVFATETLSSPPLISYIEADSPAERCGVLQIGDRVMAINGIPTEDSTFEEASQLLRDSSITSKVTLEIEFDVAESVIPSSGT

IL16_1, Q14005 = biological target: IL16_1, Q14005
Chain of IL16_1, Q14005 (Q14005 210-306): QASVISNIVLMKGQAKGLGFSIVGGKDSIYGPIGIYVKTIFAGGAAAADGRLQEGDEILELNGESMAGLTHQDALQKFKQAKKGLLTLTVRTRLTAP

Inadl_9, Q8NI35 = biological target: Inadl_9, Q8NI35
Chain of Inadl_9, Q8NI35 (Q8NI35 1530-1615): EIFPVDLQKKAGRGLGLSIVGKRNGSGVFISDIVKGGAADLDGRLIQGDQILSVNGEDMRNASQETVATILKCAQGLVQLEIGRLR

LDB3, O75112 = biological target: LDB3, O75112
Chain of LDB3, O75112 (O75112 1-94): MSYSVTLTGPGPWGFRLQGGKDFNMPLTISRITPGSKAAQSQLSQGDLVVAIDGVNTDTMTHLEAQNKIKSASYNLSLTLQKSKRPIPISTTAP

LNX1_1, Q8TBB1 = biological target: LNX1_1, Q8TBB1
Chain of LNX1_1, Q8TBB1 (Q8TBB1 261-371): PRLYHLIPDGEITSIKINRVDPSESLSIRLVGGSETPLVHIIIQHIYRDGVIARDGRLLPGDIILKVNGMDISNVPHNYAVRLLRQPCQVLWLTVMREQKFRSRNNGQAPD

LNX2_2, Q8N448 = biological target: T5, LNX2_2, Q8N448
T5 sequence (Q8N448 334-432, limits assumed, looked up): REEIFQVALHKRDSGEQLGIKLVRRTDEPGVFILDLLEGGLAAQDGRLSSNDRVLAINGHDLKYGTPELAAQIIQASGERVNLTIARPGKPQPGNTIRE

MAGI1_1, Q96QZ7 = biological target: MAGI1_1, Q96QZ7
Chain of MAGI1_1, Q96QZ7 (Q96QZ7 1-106): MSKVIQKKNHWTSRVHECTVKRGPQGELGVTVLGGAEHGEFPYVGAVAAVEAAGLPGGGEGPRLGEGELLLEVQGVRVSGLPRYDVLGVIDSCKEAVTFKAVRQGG

MAGI2_6, Q86UL8 = biological target: MAGI2_6, Q86UL8
Chain of MAGI2_6, Q86UL8 (Q86UL8 1141-1229): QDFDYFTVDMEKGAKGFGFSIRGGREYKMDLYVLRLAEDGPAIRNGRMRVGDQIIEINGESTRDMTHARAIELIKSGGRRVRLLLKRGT

MPP2, Q14168 = biological target: T6, MPP2, Q14168
T6 sequence (Q14168 180-250, limits assumed, looked up): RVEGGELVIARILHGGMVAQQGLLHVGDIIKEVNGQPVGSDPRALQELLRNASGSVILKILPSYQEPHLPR

NHERF2_2, Q15599 = biological target: NHERF2_2, Q15599
Chain of NHERF2_2, Q15599 (Q15599 142-238): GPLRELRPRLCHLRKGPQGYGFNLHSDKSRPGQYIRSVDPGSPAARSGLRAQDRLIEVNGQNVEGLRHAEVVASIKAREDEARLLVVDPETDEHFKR

NHERF4_1, Q86UT5-2 = biological target: NHERF4_1, Q86UT5-2
Chain of NHERF4_1, Q86UT5-2 (Q86UT5 other isoform, or with tags, fused parts or gaps): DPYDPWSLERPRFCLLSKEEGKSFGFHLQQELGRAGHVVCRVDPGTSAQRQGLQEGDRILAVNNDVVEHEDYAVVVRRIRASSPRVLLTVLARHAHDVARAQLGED

PARD3B_1, Q8TEW8 = biological target: T7, PARD3B_1, Q8TEW8
T7 sequence (Q8TEW8 196-299, limits assumed, looked up): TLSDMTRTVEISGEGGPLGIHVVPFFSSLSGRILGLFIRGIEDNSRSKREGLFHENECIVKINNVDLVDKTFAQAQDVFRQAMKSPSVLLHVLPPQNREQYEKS

PDZD7_3, Q9H5P4 = biological target: T8, PDZD7_3, Q9H5P4
T8 sequence (Q9H5P4 857-944, limits assumed, looked up): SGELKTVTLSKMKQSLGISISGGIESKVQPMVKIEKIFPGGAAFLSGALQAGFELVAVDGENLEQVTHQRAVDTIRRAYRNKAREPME

PTPN13_1, Q12923 = biological target: T9, PTPN13_1, Q12923
T9 sequence (Q12923 1088-1188, limits assumed, looked up): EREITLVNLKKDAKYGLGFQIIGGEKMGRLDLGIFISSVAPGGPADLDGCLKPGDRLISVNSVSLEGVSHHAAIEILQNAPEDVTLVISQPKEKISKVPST

SCRIB_3, Q14160 = biological target: SCRIB_3, Q14160
Chain of SCRIB_3, Q14160 (Q14160 999-1103): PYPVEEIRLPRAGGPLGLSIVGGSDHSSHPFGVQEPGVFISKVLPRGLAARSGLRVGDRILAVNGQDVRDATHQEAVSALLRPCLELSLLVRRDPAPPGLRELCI

SHANK1, Q9Y566 = biological target: T10, SHANK1, Q9Y566
T10 sequence (Q9Y566 658-767, limits assumed, looked up): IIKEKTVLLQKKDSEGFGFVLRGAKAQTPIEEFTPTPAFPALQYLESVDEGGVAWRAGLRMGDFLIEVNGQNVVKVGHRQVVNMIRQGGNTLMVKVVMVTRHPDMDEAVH

SIPA1L2, Q9P2F8 = biological target: T11, SIPA1L2, Q9P2F8
T11 sequence (Q9P2F8 945-1036, limits assumed, looked up): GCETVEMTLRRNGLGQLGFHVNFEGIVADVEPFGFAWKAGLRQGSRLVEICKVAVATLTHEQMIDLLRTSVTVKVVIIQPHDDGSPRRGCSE

SNTG2, Q9NY99 = biological target: T12, SNTG2, Q9NY99
T12 sequence (Q9NY99 68-166, limits assumed, looked up): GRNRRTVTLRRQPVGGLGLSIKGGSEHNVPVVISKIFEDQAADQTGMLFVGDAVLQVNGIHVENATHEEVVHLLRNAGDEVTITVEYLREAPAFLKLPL

For FHSIKQSTAV [CRHR1, P34998], the pKd (CARD11, Q9BXL7) was “below the threshold”, the pKd (DFNB31_1, Q9P202) was 4.39 and the pKd (DFNB31_2, Q9P202) was “below the threshold”. For the same binder, the pKd (DLG4_1, P78352) was 4.56, the pKd (GIPC2, Q8TF65) was “below the threshold” and the pKd (GRASP, Q7Z6J2) was 4.72. The pKd (GRID2IP_2, A4D2P6) was 4.34, the pKd (GRIP1_4, Q9Y3R0) was “below the threshold” and the pKd (IL16_1, Q14005) was “below the threshold”. The pKd (Inadl_9, Q8NI35) was 3.83, the pKd (LDB3, O75112) was “below the threshold” and the pKd (LNX1_1, Q8TBB1) was “below the threshold”. The pKd (LNX2_2, Q8N448) was 4.16, the pKd (MAGI1_1, Q96QZ7) was “below the threshold” and the pKd (MAGI2_6, Q86UL8) was 3.83. For the same binder, the pKd (MPP2, Q14168) was “below the threshold”, the pKd (NHERF2_2, Q15599) was “below the threshold” and the pKd (NHERF4_1, Q86UT5-2) was 3.81. For the same binder, the pKd (PARD3B_1, Q8TEW8) was “below the threshold”, the pKd (PDZD7_3, Q9H5P4) was 4.36 and the pKd (PTPN13_1, Q12923) was “below the threshold”. For the same binder, the pKd (SCRIB_3, Q14160) was 4.43, the pKd (SHANK1, Q9Y566) was 4.55 and the pKd (SIPA1L2, Q9P2F8) was “below the threshold”. It also gave a pKd (SNTG2, Q9NY99) of 3.6.
